Among the data in patent US20260209316A1 are % inhibition of binding values, retold here.

The target in experiment [1] is mucin domain-deleted Sudan GP (GPdMuc) (Sudan virus (SUDV)) (UniProt Q7T9D9). The experiment in a line: BLI competition on Sudan GPdMuc; competitor 316L.
Experiment [2] shares this target. The experiment in a line: BLI competition on Sudan GPdMuc; competitor 15H10.
Experiment [3] has the same target. Kind of experiment: BLI competition on Sudan GPdMuc (column in both tables); competitor 316L.
For experiment [4] the target is unchanged. Kind of experiment: BLI competition on Sudan GPdMuc (column in both tables); competitor 16F6.
The target is the same in experiment [5]. Kind of experiment: BLI competition on Sudan GPdMuc (column in both tables); competitor mAb166.
Experiment [6] has the same target. The experiment in a line: BLI competition on Sudan GPdMuc (column in both tables); competitor 15H10.
For experiment [7] the target is unchanged. Kind of experiment: BLI competition on Sudan GPdMuc; competitor mAb166.
The target is the same in experiment [8]. Kind of experiment: BLI competition on Sudan GPdMuc; competitor 16F6.
The target of experiment [9] is mucin domain-deleted Zaire GP (GPdMuc) (Ebola (Zaire) virus (EBOV)) (UniProt Q05320). The experiment in a line: BLI competition on Zaire GPdMuc (upper table); competitor 15H10.
The target is the same in experiment [10]. Kind of experiment: BLI competition on Zaire GPdMuc (upper table); competitor 13C6.
The target is the same in experiment [11]. Kind of experiment: BLI competition on Zaire GPdMuc (upper table); competitor 380L.
The target is the same in experiment [12]. The experiment in a line: BLI competition on Zaire GPdMuc (upper table); competitor KZ52 (self).
For experiment [13] the target is unchanged. The experiment in a line: BLI competition on Zaire GPdMuc (upper table); competitor 316L.
The target is the same in experiment [14]. Kind of experiment: BLI competition on Zaire GPdMuc (upper table); competitor mAb114.

For HIV-specific antibody VRC01, the % inhibition of binding in experiment [1] is 29.9%; in experiment [2], -296%; in experiment [3], 20.6%; in [4], -7.53%; in [5], -82.7%; in [6], -333%. For the same substance, the % inhibition of binding is -43.1% in [7] and 31% in experiment [8].
In the case of KZ52 (antibody), the % inhibition of binding was -1% in experiment [9]; 13% in experiment [10]; 10% in [11]; 96% in [12]; 8% in [13]; 9% in [14].
